Where two headings read alike, the source gives them in different places.
Assays:
[1] = target: human Y1 receptor (human) (UniProt P25929); experiment: 125I-PYY displacement, COS-7 membranes
[2] = target: human Y4 receptor (human) (UniProt P0DQD5); experiment: 125I-PYY displacement, COS-7 membranes
[3] = target: human Y2 receptor (human) (UniProt P49146); experiment: 125I-PYY displacement, COS-7 membranes
[4] = target: human Y1 receptor (human) (UniProt P25929); experiment: 125I-PYY displacement, COS-7 membranes; remark: listed apart in the source
[5] = target: human Y4 receptor (human) (UniProt P0DQD5); experiment: 125I-PYY displacement, COS-7 membranes; remark: listed apart in the source
rat Y4 receptor (rat) = rat Y4 receptor (rat) (UniProt Q63447); experiment: 125I-PYY displacement, COS-7 membranes
[6] = target: Y2-like receptor population expressed by human SK-N-Be(2) neuroblastoma cells; experiment: 125I-PYY displacement, SK-N-Be(2) membranes
[7] = target: human Y4 receptor (human) (UniProt P0DQD5); experiment: 125I-PYY displacement, COS-7 membranes; remark: listed apart in the source
[8] = target: human Y4 receptor (human) (UniProt P0DQD5); experiment: 125I-PYY displacement, COS-7 membranes (as in Table 3)
[9] = target: Y2-like receptor population expressed by human SK-N-Be(2) neuroblastoma cells; experiment: ratio of Ki values, 125I-PYY displacement
[10] = target: human Y4 receptor (human) (UniProt P0DQD5); experiment: cell-based or functional assay
[11] = target: human Y1 receptor (human) (UniProt P25929); experiment: ratio of Ki values, 125I-PYY displacement
[12] = target: human Y4 receptor (human) (UniProt P0DQD5); experiment: ratio of Ki values, 125I-PYY displacement

human Y2 receptor (human), sequence (P49146 whole entry): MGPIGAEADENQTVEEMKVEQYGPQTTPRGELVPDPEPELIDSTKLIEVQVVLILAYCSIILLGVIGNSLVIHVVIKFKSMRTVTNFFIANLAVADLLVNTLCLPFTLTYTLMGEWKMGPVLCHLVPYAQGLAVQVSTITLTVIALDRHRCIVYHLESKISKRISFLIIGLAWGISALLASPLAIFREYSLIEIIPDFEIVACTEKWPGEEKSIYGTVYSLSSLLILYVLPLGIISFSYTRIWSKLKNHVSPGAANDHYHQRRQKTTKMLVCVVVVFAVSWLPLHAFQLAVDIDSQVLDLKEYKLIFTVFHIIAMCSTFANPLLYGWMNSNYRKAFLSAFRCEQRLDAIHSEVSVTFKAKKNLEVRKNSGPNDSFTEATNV
human Y1 receptor (human), sequence (P25929 whole entry): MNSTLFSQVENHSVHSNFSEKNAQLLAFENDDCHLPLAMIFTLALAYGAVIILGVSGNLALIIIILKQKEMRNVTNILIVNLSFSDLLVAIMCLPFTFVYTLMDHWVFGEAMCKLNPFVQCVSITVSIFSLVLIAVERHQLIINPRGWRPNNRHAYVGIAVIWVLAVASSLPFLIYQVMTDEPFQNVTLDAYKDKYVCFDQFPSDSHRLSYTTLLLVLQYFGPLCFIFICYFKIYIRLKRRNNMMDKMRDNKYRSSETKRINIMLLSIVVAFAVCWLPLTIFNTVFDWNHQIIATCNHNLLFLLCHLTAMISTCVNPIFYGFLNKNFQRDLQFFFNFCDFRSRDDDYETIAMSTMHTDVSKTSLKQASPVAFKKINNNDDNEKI
rat Y4 receptor (rat), sequence (Q63447 whole entry R262P): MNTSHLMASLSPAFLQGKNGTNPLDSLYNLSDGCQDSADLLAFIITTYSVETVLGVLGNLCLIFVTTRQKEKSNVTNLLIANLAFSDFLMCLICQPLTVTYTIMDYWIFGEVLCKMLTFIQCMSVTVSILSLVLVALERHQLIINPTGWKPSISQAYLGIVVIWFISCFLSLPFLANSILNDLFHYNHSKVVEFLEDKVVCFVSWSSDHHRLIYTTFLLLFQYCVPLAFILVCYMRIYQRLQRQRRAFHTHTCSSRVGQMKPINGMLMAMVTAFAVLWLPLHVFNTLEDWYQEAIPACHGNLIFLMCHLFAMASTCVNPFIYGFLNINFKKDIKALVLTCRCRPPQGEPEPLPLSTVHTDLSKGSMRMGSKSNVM
PP, salmon (peptide), sequence (P69092 whole entry): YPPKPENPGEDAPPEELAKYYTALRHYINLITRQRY
human Y4 receptor (human), sequence (P0DQD5 whole entry): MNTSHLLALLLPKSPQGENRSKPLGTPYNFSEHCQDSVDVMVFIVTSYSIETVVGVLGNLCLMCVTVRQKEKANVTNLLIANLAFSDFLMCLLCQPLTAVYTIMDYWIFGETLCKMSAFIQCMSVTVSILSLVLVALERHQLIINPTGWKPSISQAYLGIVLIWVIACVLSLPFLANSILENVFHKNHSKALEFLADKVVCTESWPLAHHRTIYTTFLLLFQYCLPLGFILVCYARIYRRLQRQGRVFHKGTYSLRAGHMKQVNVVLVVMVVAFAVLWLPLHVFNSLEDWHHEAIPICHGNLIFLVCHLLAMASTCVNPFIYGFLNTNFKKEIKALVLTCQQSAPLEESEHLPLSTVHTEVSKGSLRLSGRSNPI

| Substance | Ki [1] [nM] | Ki [2] [nM] | Ki [3] [nM] | Ki [4] [nM] | Ki [5] [nM] | Ki [6] [nM] | other results |
| --- | --- | --- | --- | --- | --- | --- | --- |
| porcine NPY13-36 (from UniProt P01304 22-45) (peptide) | 51 | 39 | 2.5 | 70 | 38 | – | Ki (rat Y4 receptor (rat)): 135 nM |
| porcine NPY2-36 (from UniProt P01304 11-45) (peptide) | – | 4.4 | – | 2.4 | 5.6 | 0.41 | – |
| porcine NPY16-36 (from UniProt P01304 25-45) (peptide) | 45 | – | 3.6 | 41 | 54 | 5 | – |
| porcine NPY26-36 (from UniProt P01304 35-45) (peptide) | > 300 | – | 380 | – | – | 70 | – |
| C2-NPY, porcine (peptide) | – | – | 3.5 | 73 | 120 | – | Ki (rat Y4 receptor (rat)): 22 nM |
| porcine NPY20-36 (from UniProt P01304 29-45) (peptide) | 62 | 100 | – | 63 | 120 | 3.1 | – |
| PP31-36 free acid, human (from UniProt P01298 60-65) (peptide) | – | – | – | – | – | – | Ki [7]: > 10000 nM |
| PP, avian (peptide) | – | – | – | 400 | 7 | – | – |
| porcine NPY18-36 (from UniProt P01304 27-45) (peptide) | 28 | 63 | – | 70 | – | 2.1 | Ki [8]: > 290 nM |
| PP, frog (peptide) | – | – | – | 98 | 61 | – | Ki (rat Y4 receptor (rat)): 0.19 nM; Ki [7]: 62 nM |
| human peptide YY (from UniProt P10082 29-64) | – | – | – | – | – | 0.11 | fold higher affinity than at hp25a [9]: 5 to 10 fold |
| PP, salmon (peptide) | – | – | – | 0.2 | 3.2 | – | Ki [8]: 3.2 nM; EC50, inhibition of forskolin-stimulated cAMP accumulation, LM(tk-) cells [10]: 110 nM; Ki (rat Y4 receptor (rat)): 0.36 nM |
| human NPY free acid (from UniProt P01303 29-64) (peptide) | – | – | – | – | – | 280 | – |
| porcine NPY22-36 (from UniProt P01304 31-45) (peptide) | 170 | 140 | 18 | – | – | 3.2 | fold loss in affinity against full length porcine NPY [9]: 11 fold; fold loss in affinity against full length porcine NPY [11]: 3500 fold; fold loss in affinity against full length porcine NPY [12]: 120 fold |
